These results are taken from US20040005320A1 (ZymoGenetics, published 2004).

Assay [1] deals with T1, IL-20RA/IL-20RB heterodimeric receptor (human, UniProt Q9UHF4 30-553; Q6UXL0 30-311).
T1 construct: Both subunits were co-expressed on transfected COS, BHK or BaF3 cells, or were endogenous on human HaCaT keratinocytes; also called IL-20RB/IL-20RA heterodimer; IL-20 receptor
T1 sequence 1: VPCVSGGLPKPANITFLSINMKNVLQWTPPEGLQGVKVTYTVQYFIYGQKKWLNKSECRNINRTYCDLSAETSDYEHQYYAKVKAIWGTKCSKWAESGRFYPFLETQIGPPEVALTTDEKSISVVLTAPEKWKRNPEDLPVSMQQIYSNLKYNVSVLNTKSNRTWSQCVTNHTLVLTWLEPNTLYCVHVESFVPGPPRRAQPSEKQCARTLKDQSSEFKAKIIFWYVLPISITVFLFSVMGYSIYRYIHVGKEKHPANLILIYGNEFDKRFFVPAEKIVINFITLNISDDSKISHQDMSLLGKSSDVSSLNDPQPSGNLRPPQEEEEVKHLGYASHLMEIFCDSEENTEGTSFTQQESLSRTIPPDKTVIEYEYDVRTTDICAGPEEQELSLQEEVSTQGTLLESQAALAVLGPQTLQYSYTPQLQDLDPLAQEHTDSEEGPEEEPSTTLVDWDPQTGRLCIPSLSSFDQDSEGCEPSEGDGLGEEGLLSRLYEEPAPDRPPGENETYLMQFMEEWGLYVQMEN
T1 sequence 2: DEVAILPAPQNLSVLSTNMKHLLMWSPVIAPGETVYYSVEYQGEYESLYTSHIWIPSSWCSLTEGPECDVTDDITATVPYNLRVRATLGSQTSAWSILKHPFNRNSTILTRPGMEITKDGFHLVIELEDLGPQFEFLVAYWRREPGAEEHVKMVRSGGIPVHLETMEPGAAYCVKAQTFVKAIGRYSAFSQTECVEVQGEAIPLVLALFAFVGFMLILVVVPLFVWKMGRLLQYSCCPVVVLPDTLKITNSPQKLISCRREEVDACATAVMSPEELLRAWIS
Briefly: 125I-labeled IL-20 binding on BHK cells expressing IL-20RA and IL-20RB. The method, then:
(§1) The specificity and affinity of IL-20 for its receptor was determined using BHK cells stably transfected with IL-20RA, IL-20RB or both receptor subunits. […] Binding of ¹²⁵I-labeled IL-20 was eliminated in the presence of 100-fold excess of unlabeled IL-20 but not with 100-fold excess of the unrelated cytokine, IL-21.

The next assay has as its target T2, IL-20RA (human, UniProt Q9UHF4 30-553).
T2 construct: Expressed alone on stably transfected BHK cells; also called Zcytor7; IL-20RA subunit alone
T2 sequence: T1 sequence 1
Briefly: radiolabeled ligand binding on stably transfected BHK cells. The method, then: as §1

The target of the next assay is T3, IL-20RB (human, UniProt Q6UXL0 30-311).
T3 construct: Expressed alone on stably transfected BHK cells; also called IL-20RB subunit alone
T3 sequence: T1 sequence 2
The description is as above. The method, then:
as §1

B1: IL-20 (ligand, UniProt Q9NYY1 25-176, looked up)
chain: LKTLNLGSCVIATNLQEIRNGFSEIRGSVQAKDGNIDIRILRRTESLQDTKPANRCCLLRHLLRLYLDRVFKNYQTPDHYTLRKISSLANSFLTIKKDLRLCHAHMTCHCGEEAMKKYSQILSHFEKLEPQAAVVKALGELDILLQWMEETE
notes: also called biotin-labeled IL-20 protein; biotinylated IL-20
The Kd is the concentration at which binding is half-saturated. Read a high Kd as lower affinity. On to B1, for which the dissociation constant Kd in assay [1] is about 1.5 nM. Also, the binding result with IL-20RA and with IL-20RB was “no binding” in each case.
